# The nanobody polyreactivity screen of Harvey et al. (2022)
# Experiment: yeast display, Sf9 membrane polyspecificity reagent, FACS + sequencing; frameworks hold sequencing errors
# How it was run: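 In a synthetic yeast display library (Saccharomyces cerevisiae BJ5465), nanobody expression was induced with galactose for 36–48 hours. FACS gates were set low and high (top ~1%) using anti-HA fluorescence for expression and streptavidin fluorescence for binding of the Sf9 membrane reagent. Each polyreactivity label is drawn from the gate of origin.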
row,Sequence,polyreactivity (PSR sort gate)
1,QVQLVESGGGLVQAGGSLRLSCAASGRTFYYNAMGWYRQAPGKERELVATISWRGGNTYYADSVKGRFTISRDNAKNTVYLQMNSLKPEDTAVYYCNARTVGWKALTGKYDYWGQGTQVTVSS,high polyreactivity
2,QVQLVESGGGLVQAGGSLRLICAASGITFRRYTMGWYREAPGKERELVATISLSDGNTYYADSVKGRFTISRDNAKYTLYLQMNSLKPEDTAVYYCNARHTWHQTYDYWGQGTIVTVSS,low polyreactivity
3,QVQLVESGGGLVQAGGSLRLSCAASGRIFDYYTMGWYRQAPGKERELVAGINSGDSTYYADYVKGRFTISRDNAKNTVYLQMNSLKPEDTAVYYCAASADWWYEYWGQGTQVTVSS,high polyreactivity
4,QVQLVESGGGLVQAGGSLRLSCAASGRTFCIYAMGWYIQAPGKEREFVAAISSSGGGTYYADSVKGRFTISRDNAKNTVYLQMNSLKPEDTAVYYCAADDGYSSNEYDYWGQGTQVTVSS,low polyreactivity
5,QVQLVESGGGLVQAGGSLRLSCAASGIIFYPYAMGWYRQAPGKERELVAAISIGGGSTYYADSVKGRFTISRDNAKNTVYLQMNSLKPEDTAVYYCAAGTPYGILGYYYWGQGTQVTVSS,low polyreactivity
6,QVQLVESGGGLVQAGGSLRLSCAASGLIFWGYTMGWYRQAPGKEREFVAAISKSAGSTFYADSVKGRFTISRDNAKNTVYLQMNSLKPEDTAVYYCATGGFPGARVAYDYYYWGQGTQVTVSS,low polyreactivity
7,QVQLVESGGGLVQAGGSLRLSCAASGYIFYYNTMGWYRQAPGKERELVAAISATGGRTYYADSVKGRFTISRDNAKNTVYLQMNSLKPEDTAVYYCAKRGISPYGYWGQGTQVTVSS,high polyreactivity
8,QVQLVESGGGLVQAGGSLRLSCAASGSTLSAYVMGWYRQAPGKERELVAAITRGGNTYYADSVKGRFTISRDNAKNTVYLQMNSLKPEDTAVYYCAARTYVSYGYYTRNYWGQGTQVTVSS,high polyreactivity
9,QVQLVESGGGLFQAGGSLRLSCAASGSTFDTYAMGWYRQAPGKERELVAAISYRGGNTYYADSVKGRFTISRDNAKNTVYLQMNSLKPEDTAVYYCNAGVSIGRSRRYDYWGQGTQVTVSS,low polyreactivity
10,QDQLVESGGGLVQAGGSLRLSCAASGLTLLHYAMGWYRQAPGKERELVAAISTRGGSTYYADSVKGRFTISRDNAKNTVYLQMNSLKPEDTADYYCNALKGRPRGTAGYYRVEYWGQGTQVTVSS,high polyreactivity
11,KVQLVESGGGLVQAGGSLRLSSADSGRIYVGYAIVWYRQEPGKEMEMVAGISRSGDSTYYADSVKGRFTISRDNAKNTVYLQMNSLKPEDTAVYYCAARINYWGYYYWGQGSQVTVSS,high polyreactivity
12,QVQLVESGGGLVQAGRSLRLSCAASGRISTRYAMGWYRQAPGKERELVAAITIGTDTTYADSVKGRFTISRDNAKNTVYLQMNTLKPEDTAVYYCAAERYILARFEYWGQGTQVTVSS,low polyreactivity
13,QVQLVESGGGLVQAGGSLRLSCAASGSIFLKYAMGWYRQAPGKERELVAAISRGGDTNYADSVKGRFTISRDNAKNTVYLQMNSLKPEDTAVYYCAARPGLYFTRRGRYYWGQGTQVTVSS,high polyreactivity
14,QVQLVESGGGLVQAGGSLRLSCAASGFTFSSNGMGWYRQAPGKERELVAAITRRGGSTYYADSVKGRFTISRDNAKNTVYLQMNSLKPEDTAVYYCAARRSGTYYGTYKSNGRNYWGQGTQVTVSS,high polyreactivity
15,QVQLVESGGGLVQAGGSLRLSCAASGFIFYKNAMGWYRQAPGKERELVAAINWSGGSTYYADSVKGRFTISRDNAKNTVYLQMNSLKPEDTAVYYCAVVVYSGYRHYYWGQGTQVTVSS,high polyreactivity
16,QVQLVESGGGLVQAGGSLRLSCAASGSIFYKYAMGWYRQARGKERELVAAINRGVSTYYADSVKGRFTISRDNAKNTVYLQLTSLKPEDTAVYYCNADSTELRGYYYWGLGTQVTVSS,low polyreactivity
17,QGQLVESGGGLVQAAGSLSLSCAASGRIYPYAMGWYRQAPGKERELVAAIPVNDGSTYYADSVTGRFTIARDNAMISVDLQMNSRKPEVSAVYYWKADYPIGWRNQYVQILYDYWGQGTQVTVSS,low polyreactivity
18,QVQLVESGGGLFQEGGSLRLSCAASGSIFTFYAMGWYRQAPGKERELVAAITSGGSTTYADSVKGRFTISRDNAKNTVYLQMNSLKREDTAVFYCNAESWWGYYYWGQVTQVTVSS,high polyreactivity
19,QVQLVESGGGLVQAGGSLRLSCAASGSNFRYYAMGWDRQAPGKERELVAAISYSGGTTYYADSVKGRFTISRDNAKNTVYLQMNSLKPEDTAVYYCAVPLIGVDGYAYDYWGQGTQVTVSS,low polyreactivity
20,QVQLVESGGGLVQAGGSLRLSCAASGIIFKYYAMGWSRQAPGKERELVAAISWTGDSTYADSVKGRFTISRDNAKNTVYLQMNSLKPEDTAVYYCAVAFRRVRSLGEGYWGQGTQVTVSS,low polyreactivity
21,QVQLVESGAGLVQAGGSLRLSCAASVRIFFYGMGWYIQAPGKQMELVATITSVSNTYYADSVKGRFTISRDNAKNTVYLQMNSLKPEDTAVYYCAARQDRYRYRYGYWGHGTQVTVSS,high polyreactivity
22,QVQLVESGGGLVQAGGSLRLSCAASGRIFVGYYAMGWYRQAPGKERELVAAITIGGRTYYADSVKGRFTISRDNAKNTVYLQMNSLKPEDTAVYYCAASKYTRAYQEYGYWGQGTQVTVSS,high polyreactivity

row,Sequence,polyreactivity (PSR sort gate)
1,QVQLVESGGGLVQAGVSLRLSCAASGSTFDTYAMGWYRQAPGKERELVAAISGSGVRTYYADSVKGRFTISRDNAKYTVYLQMNSLKPEDTAVYYCATTGYARRFDYWGQGSQVTVSS,high polyreactivity
2,QVQLVESGGGLVQAGCSLRLSCAASGFIYPVNAMGWYRQAPGKERELVAAITYSTGSTYYADSVKGRFTISRDNAKNTVYLQMNSLKPEDTAVYYCAADVPPGEVVTNDYWGQGTQVTVSS,low polyreactivity
3,QVQIVESGGGLVQAGGSLRLSCAASGSIFSRYTMGWYRQAPGKERELVARINSSGTSTYYADSVKGRFTISRDNEKNSVYFQMNSLKPEDTAVYYCDRTSRHVRYDYWGQGTQVTVSS,low polyreactivity
4,QVQLVESGGGLVQAGGSLRLISAASGRTFWTNAMGWYRQAPGKEREFVAAISWRGASTFYADSVKGRFTISRDNAKNTVYLQMNSLKPEDTAVYYCAAQSRTRSFYGKYDSWGQGTQVTVSS,low polyreactivity
5,QVQLVESGGGLVQAGGSLRLSCAASGSIFSSNAMGWYIQAPGKERELVASIDGGPTTYADSVKGRFTISRDNAKNTVYLQMNSLKPEDTAVYYCNADSLDGPKFDYWGQGTQVTVSS,low polyreactivity
6,QVQLVESGGGLVQAGGSLRLSCAASGSTLFYAMGWYRQAPGKERELVAAISWSGGSTRYADSVKGRFTISRDNAKNTVYLQMNSLKPEDTAVYYCNTYTKHTGYYWKYDYWGQGTQVTVSS,low polyreactivity
7,QVQLVEAVGGLVQAGGSLRLSCAASGNTYYGNAMGWYRQAPGKEREFVAAITIRTGSTYYADSVKGRFTISRDNAKNTVYLQMNSLKPDDTAVYYCAADAYWRWNWYDYWGQGTQVTVSS,high polyreactivity
8,QVQLVESGVGLVQAGGSLRLSCAASGSTFQWYAMGWYIQAPGKERELVAAINKSGGTTYYADSVKGRFTISRDNAKNTVYLLMNSLKPEDTAVYYCATDTPVVYQPGNMDYWGQGTQVTVSS,low polyreactivity
9,QVQLVESGGGLVQAGGSLRLSCAASGRTFVRNAMGWYRQAPGKVRELVAAISSIGDSTYYADSVKGRFTISRDNAKNTVYLQMNSLKPEDTAVYYSNARGYVYYRMGYWGQGTQETVSS,low polyreactivity
10,QVQLVESGGGLVQAGGSLRLSCAASGRIFWTNAMGWYRQEPGKERELVAAISYNGASTFYADSVKGRFTISLDNAKNTVNLQMNSLKPEDTAVYSCNAYSSRYRYNYWGQGTQVTVSS,high polyreactivity
11,QVQLVESGGGFVQAGGSLRLSCAASGSIFRGYAMGWYRQAPGKERELVAAIRYSGARTYYADSVKGRFTISRDNAKNTVYLQMNSLKPEDTAVYYCNARYIRSYDYWGQGTQVTVSS,high polyreactivity
12,QVQLVESGGGLVQAGGSLRLSCAASGFTFALNAMGWYRQAPGKERELVAAISSRGGSTYYADSVKGRFTISRDNAKNTVYLQMNSLKPEDTAGYYCAKDYKADSRFSPYGYWGQGTQVTVSS,high polyreactivity
13,QDQHVESGGGLVQAGCSLRLSCAASGSIFKDNAMGWYRPAPCKEWELVADITIGDSTTYEDSVKGRFTISRDNAKNTVYLHMNSLKPEDTAVYYCAADNYIIKYDYWDYDYCGQGTQVTVSS,low polyreactivity
14,QVQLVESGGGLVQAGGSLRLSCAASGFTFKYYAMGWYRQAPGKERELVAAISSRGGSTYYADSVKGRFTISRDKAKNTVYLQMNSLKPEDTAVYYCAAYYRTGSIWYAIFSDDYWGQGTQVTVSS,high polyreactivity
15,QVQLVESGGGLVQAGGSLRISCAASGSIFPEYAMGWYRQAPGKERELVAAITTSGGSTYYADSVKGRFTISRDNAKNTVYLQMNSLKPEDTAVYYCAVEYLVYLDYTYDYWGQGTQVTVSS,low polyreactivity
16,QVQLVESGGGLVQAVGSLRLSCAASGSTFREYTMGWYRQAPGKERELVAAITNSGGSTYYADSVKGRFTISRDNAKNTVYLQMNSLKPEDTAVYYCAAEGRYFYFTVKMDYWGQGTQVTVSS,low polyreactivity
17,QVQLVESGGGLVQAGGSLRLICAASGSIFTKYAMVWYRQAPGKERELVAAITWSGGRTYYADSVKGRYTISRDNAKNTVYLQMNSLKPEDTAVYYCAAELFRQGYYYWGQGTQVTVSS,high polyreactivity
18,QVQLVDSRGGLVQAGGSLRLSCAASGIIFGYYAMGWYRQAPGKERELVAAITWSGGSTYYADSVKGSFTISRDNAKNTVYLQMNSLKPEDTAVYYCAASAYVQPYDYWGQGTQVTVSS,high polyreactivity
19,QVQLVESGGGLVQAGGSLRLSCAASGSIFRWYAMGWYRQAPGKERELVAAISRRGGRTYYADSVKGRFTISRDNAKNTVYLQMNSLKPEDSAVYYCNADFGYRLPGNYWGQGTQVTVSS,low polyreactivity
20,QVQLVESGGGLVQAGGSLRLICAASGYTFGYYAMGWYRQAPGKERELVAAISWRGARTNYADSVEGRFTISRDNAKNTVYLQMNSLKPEDTAVYYCAARGGYYQGRYKYGYWGQGTQVTVSS,high polyreactivity
21,HVQLVESGGGLVQAGGSLRLSCAASGSIFRGNAMGWYRQAPGKERELVAAISKSGGSTYYADSVKGRFTISRDNAKNTVFVQMNSLKPEDTAVYYCAARTTYLYGMYYWGQGTQVTVSS,low polyreactivity
